From paper PMC3280929, “Engineered Trx2p industrial yeast strain protects glycolysis and fermentation proteins from oxidative carbonylation during biomass propagation” (Microbial Cell Factories, 2012)
Where “and” joins values, the source holds several entries; their conditions need not be identical. Equal values may be shown once.

Biological target: the molecule itself
Test: SDS-PAGE and anti-Adh1p western blot of SDS-resistant oligomers; crude extracts of T73 cells (dehydrated, grown 5 h in YPGF, or fresh with or without 5 mM glyoxal), 10% SDS-polyacrylamide gel under denaturing conditions, polyclonal anti-Adh1p

B1: alcohol dehydrogenase I (Adh1p) (enzyme, S. cerevisiae (endogenous in strain T73), UniProt P00330 1-348, looked up)
chain: MSIPETQKGVIFYESHGKLEYKDIPVPKPKANELLINVKYSGVCHTDLHAWHGDWPLPVKLPLVGGHEGAGVVVGMGENVKGWKIGDYAGIKWLNGSCMACEYCELGNESNCPHADLSGYTHDGSFQQYATADAVQAAHIPQGTDLAQVAPILCAGITVYKALKSANLMAGHWVAISGAAGGLGSLAVQYAKAMGYRVLGIDGGEGKEELFRSIGGEVFIDFTKEKDIVGAVLKATDGGAHGVINVSVSEAAIEASTRYVRANGTTVLVGMPAGAKCCSDVFNQVVKSISIVGSYVGNRADTREALDFFARGLVKSPIKVVGLSTLPEIYEKMEKGQIVGRYVVDTSK
modifications: oxidative carbonylation of the dimer, tetramer and higher bands (residues not stated)
notes: Alcohol dehydrogenase I (Adh1p) of Saccharomyces cerevisiae, subunit of approximately 37 kDa; Endogenous protein of an industrial wine strain; source: endogenous, S. cerevisiae wine strain T73 (and TTRX2), crude cell extracts
In the case of B1, the “stoichiometry N” value is reported as 2 and 4.
